These results are taken from article doi:10.1101/2020.05.16.099382 (bioRxiv, 2020).

B5: Rubisco large subunit of Nostoc sp. PCC 7120 (natural protein, UniProt P00879 1-476, looked up)
chain: MSYAQTKTQTKSGYKAGVQDYRLTYYTPDYTPKDTDILAAFRVTPQPGVPFEEAAAAVAAESSTGTWTTVWTDLLTDLDRYKGRCYDIEPVPGEDNQFIAYIAYPLDLFEEGSITNVLTSIVGNVFGFKALRALRLEDIRFPVAYIKTFQGPPHGIQVERDKLNKYGRPLLGCTIKPKLGLSAKNYGRAVYECLRGGLDFTKDDENINSAPFQRWRDRFLFVADAITKAQAETGEIKGHYLNVTAPTCEEMLKRAEYAKELKQPIIMHDYLTAGFTANTTLARWCRDNGVLLHIHRAMHAVIDRQKNHGIHFRVLAKALRLSGGDHIHTGTVVGKLEGERGITMGFVDLLRENYVEQDKSRGIYFTQDWASLPGVMAVASGGIHVWHMPALVEIFGDDSVLQFGGGTLGHPWGNAPGATANRVALEACVQARNEGRNLAREGNDVIREAAKWSPELAVACELWKEIKFEFEAMDTV

Like-named read-outs stand apart in the source and are kept apart here.

The data set “SEC-MALS” deals with the molecule itself. Nature of the data set: SEC-MALS.
The data set “cryo-EM structure” concerns the molecule itself. Description: cryo-EM structure.
For data set [1], the target named is B5. Description: cryo-EM structure.
Data set [2] has as its target B5. Nature of the data set: cryo-EM structure. The source holds these as a separate data set.

B1: NosRcaΔC (NosRca lacking the C-terminal 123 residues: linker and SSUL domain) (domain or fragment, Nostoc sp. PCC 7120, UniProt P58555 2-291, looked up)
chain: SYYIAPRFLDKLAVHITKNFLNIPGVRVPLILGIHGRKGEGKTFQCELAFEKMGIEVTLISGGELESPDAGDPARLIRLRYRETAELIKVRGKMCVLMINDLDAGAGRFDEGTQYTVNTQLVNATLMNIADNPTDVQLPGSYDSNPIRRVPIIVTGNDFSTLYAPLIRDGRMEKFYWEPNRDDKVGIVGGIFAEDGLSQREIEQLVDTFPKQSIDFFSALRSRIYDIQIRDFIHKVGFERISLRVVNSLEAPPEFKKPDFSLAHLIESGNLVLGEQQRVDNSQLVDEYNR
On to B1, for which the “stoichiometry N” value in the data set “SEC-MALS” is 6.

B2: NosRcaΔC V91E/R92G/G93N (domain or fragment, Nostoc sp. PCC 7120, UniProt P58555 2-291, looked up)
chain: SYYIAPRFLDKLAVHITKNFLNIPGVRVPLILGIHGRKGEGKTFQCELAFEKMGIEVTLISGGELESPDAGDPARLIRLRYRETAELIKEGNKMCVLMINDLDAGAGRFDEGTQYTVNTQLVNATLMNIADNPTDVQLPGSYDSNPIRRVPIIVTGNDFSTLYAPLIRDGRMEKFYWEPNRDDKVGIVGGIFAEDGLSQREIEQLVDTFPKQSIDFFSALRSRIYDIQIRDFIHKVGFERISLRVVNSLEAPPEFKKPDFSLAHLIESGNLVLGEQQRVDNSQLVDEYNR
Take B2: in the data set “SEC-MALS”, the “stoichiometry N” value came out at 6.

B3: NosRcaΔC P140G/Y143A/D144A (domain or fragment, Nostoc sp. PCC 7120, UniProt P58555 2-291, looked up)
chain: SYYIAPRFLDKLAVHITKNFLNIPGVRVPLILGIHGRKGEGKTFQCELAFEKMGIEVTLISGGELESPDAGDPARLIRLRYRETAELIKVRGKMCVLMINDLDAGAGRFDEGTQYTVNTQLVNATLMNIADNPTDVQLGGSAASNPIRRVPIIVTGNDFSTLYAPLIRDGRMEKFYWEPNRDDKVGIVGGIFAEDGLSQREIEQLVDTFPKQSIDFFSALRSRIYDIQIRDFIHKVGFERISLRVVNSLEAPPEFKKPDFSLAHLIESGNLVLGEQQRVDNSQLVDEYNR
Regarding B3, the “stoichiometry N” value in “SEC-MALS” turned out to be 6.

B4: NosRcaΔC L244D/N248A/L250A (domain or fragment, Nostoc sp. PCC 7120, UniProt P58555 2-291, looked up)
chain: SYYIAPRFLDKLAVHITKNFLNIPGVRVPLILGIHGRKGEGKTFQCELAFEKMGIEVTLISGGELESPDAGDPARLIRLRYRETAELIKVRGKMCVLMINDLDAGAGRFDEGTQYTVNTQLVNATLMNIADNPTDVQLPGSYDSNPIRRVPIIVTGNDFSTLYAPLIRDGRMEKFYWEPNRDDKVGIVGGIFAEDGLSQREIEQLVDTFPKQSIDFFSALRSRIYDIQIRDFIHKVGFERISDRVVASAEAPPEFKKPDFSLAHLIESGNLVLGEQQRVDNSQLVDEYNR
With B4, in “SEC-MALS”, the “stoichiometry N” value is 6.

In the case of B5, the binding result in “cryo-EM structure” is “binds”.

B6: Rubisco activase ('Rca-like' protein) of Nostoc sp. PCC 7120 (natural protein, UniProt P58555 2-414, looked up)
chain: SYYIAPRFLDKLAVHITKNFLNIPGVRVPLILGIHGRKGEGKTFQCELAFEKMGIEVTLISGGELESPDAGDPARLIRLRYRETAELIKVRGKMCVLMINDLDAGAGRFDEGTQYTVNTQLVNATLMNIADNPTDVQLPGSYDSNPIRRVPIIVTGNDFSTLYAPLIRDGRMEKFYWEPNRDDKVGIVGGIFAEDGLSQREIEQLVDTFPKQSIDFFSALRSRIYDIQIRDFIHKVGFERISLRVVNSLEAPPEFKKPDFSLAHLIESGNLVLGEQQRVDNSQLVDEYNRLNRGRGYQTAPPPEAPVIQPVNNSSHKQKTSNTHLSLETQEQIRQILSQGHKITFEHVDARRFRTGSWQSCGTLHIDAESDAISTLEACLVDYDGEYVRMVGIDPKGKRRVVETIIQRPNGKN
Turning to B6, the “stoichiometry N” value in the data set “SEC-MALS” was 6. Further, the binding result in data set [1] is recorded as “binds”.

B7: NosRca-IFmut (NosRca V91E/R92G/G93N/L244D/N248A/L250A) (natural protein, Nostoc sp. PCC 7120, UniProt P58555 2-414, looked up)
chain: SYYIAPRFLDKLAVHITKNFLNIPGVRVPLILGIHGRKGEGKTFQCELAFEKMGIEVTLISGGELESPDAGDPARLIRLRYRETAELIKEGNKMCVLMINDLDAGAGRFDEGTQYTVNTQLVNATLMNIADNPTDVQLPGSYDSNPIRRVPIIVTGNDFSTLYAPLIRDGRMEKFYWEPNRDDKVGIVGGIFAEDGLSQREIEQLVDTFPKQSIDFFSALRSRIYDIQIRDFIHKVGFERISDRVVASAEAPPEFKKPDFSLAHLIESGNLVLGEQQRVDNSQLVDEYNRLNRGRGYQTAPPPEAPVIQPVNNSSHKQKTSNTHLSLETQEQIRQILSQGHKITFEHVDARRFRTGSWQSCGTLHIDAESDAISTLEACLVDYDGEYVRMVGIDPKGKRRVVETIIQRPNGKN
B7: the “stoichiometry N” value in the data set “SEC-MALS” turned out to be 6.

B8: Rubisco small subunit of Nostoc sp. PCC 7120 (natural protein, UniProt P06514 1-109, looked up)
chain: MQTLPKERRYETLSYLPPLTDVQIEKQVQYILSQGYIPAVEFNEVSEPTELYWTLWKLPLFGAKTSREVLAEVQSCRSQYPGHYIRVVGFDNIKQCQILSFIVHKPSRY
As for B8, the binding result in data set [2] is on record as “binds”.
